# Test results: the supplement of paper PMC10567573
# B1: ZNF193 (parent)
# chain: QCIECGKSFNRHCNLIRHQKIHTV
# Variants of: B1
# Experiment: protein stability index of a GFP-peptide fusion (GPS, HEK-293T) (PSI 1-6); higher = more stable
# Settings: c terminus: a fixed tail appended
# 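Also: lentivirally expressed fusions sorted by FACS into six bins by GFP to DsRed ratio, PSI derived from sequencing read proportions per bin multiplied by bin number.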
row,Variant,protein stability index
1,QCIECGKSFNNHCNLIRHQKIHTV [R11N],4.26
2,QCIECGKSFNMHCNLIRHQKIHTV [R11M],2.86
3,QCIECGKSFNCHCNLIRHQKIHTV [R11C],3.55
4,QCIECGKSFNEHCNLIRHQKIHTV [R11E],3.76
5,QCIECGKSFNFHCNLIRHQKIHTV [R11F],3.07
6,QCIECGKSFVRHCNLIRHQKIHTV [N10V],3.75
7,QCIECGKSFFRHCNLIRHQKIHTV [N10F],3.02
8,QCIECGKSFIRHCNLIRHQKIHTV [N10I],3.28
9,QCIECGKSFTRHCNLIRHQKIHTV [N10T],4.08
10,QCIECGKSFMRHCNLIRHQKIHTV [N10M],3.14
11,QCIECGKSFERHCNLIRHQKIHTV [N10E],3.92
12,QCIECGKSFNRHTNLIRHQKIHTV [C13T],3.29
13,QCIECGKSFNRHNNLIRHQKIHTV [C13N],3.2
14,QCIECGKSFNRHENLIRHQKIHTV [C13E],4.55
15,QCIECGKSFNRHLNLIRHQKIHTV [C13L],2.73
16,QCIECGKSFNRHINLIRHQKIHTV [C13I],3.04
17,QCIECGKSFNRHHNLIRHQKIHTV [C13H],3.56
18,QCIECGKSFNRHDNLIRHQKIHTV [C13D],4.1
19,QCIECGKSFNRHPNLIRHQKIHTV [C13P],2.99
20,QCIECGKSFNRHCELIRHQKIHTV [N14E],3.94
21,QCIECGKSFNRHCILIRHQKIHTV [N14I],2.6
22,QCIECGKSFNRHCTLIRHQKIHTV [N14T],3.44
23,QCIECGKSFNRHCQLIRHQKIHTV [N14Q],4.31
24,QCIECGKSFNRHCFLIRHQKIHTV [N14F],2.32

row,Variant,protein stability index
1,QCIECGKSFNRHCYLIRHQKIHTV [N14Y],2.33
2,QCIECGKSFNRHCLLIRHQKIHTV [N14L],3.11
3,QCIECGKSFNRHCMLIRHQKIHTV [N14M],3.5
4,QCIECGKSFNRHCPLIRHQKIHTV [N14P],2.25
5,QCIECGKSFNRHCSLIRHQKIHTV [N14S],3.71
6,QCIECGKSFNRHCVLIRHQKIHTV [N14V],2.83
7,KCIECGKSFNRHCNLIRHQKIHTV [Q1K],3.6
8,YCIECGKSFNRHCNLIRHQKIHTV [Q1Y],2.99
9,RCIECGKSFNRHCNLIRHQKIHTV [Q1R],4.1
10,LCIECGKSFNRHCNLIRHQKIHTV [Q1L],3.14
11,WCIECGKSFNRHCNLIRHQKIHTV [Q1W],2.3
12,HCIECGKSFNRHCNLIRHQKIHTV [Q1H],3.36
13,TCIECGKSFNRHCNLIRHQKIHTV [Q1T],4.04
14,NCIECGKSFNRHCNLIRHQKIHTV [Q1N],2.56
15,ECIECGKSFNRHCNLIRHQKIHTV [Q1E],2.8
16,ACIECGKSFNRHCNLIRHQKIHTV [Q1A],3.14
17,PCIECGKSFNRHCNLIRHQKIHTV [Q1P],2.62
18,QCIECGKSFNRHCNLIRHPKIHTV [Q19P],1.99
19,QCIECGKSFNRHCNLIRHWKIHTV [Q19W],2.25
20,QCIECGKSFNRHCNLIRHLKIHTV [Q19L],2.75
21,QCIECGKSFNRHCNLIRHKKIHTV [Q19K],3.27
22,QCIECGKSFNRHCNLIRHGKIHTV [Q19G],2.5
23,QCIECGKSFNRHCNLIRHFKIHTV [Q19F],2.73
24,QCIECGKSFNRHCNLIRHEKIHTV [Q19E],3.73

row,Variant,protein stability index
1,QCIECGKSFNRHCNLIRHCKIHTV [Q19C],3.78
2,QCIECGKGFNRHCNLIRHQKIHTV [S8G],2.49
3,QCIECGKLFNRHCNLIRHQKIHTV [S8L],4.35
4,QCIECGKPFNRHCNLIRHQKIHTV [S8P],3.13
5,QCIECGKCFNRHCNLIRHQKIHTV [S8C],3.85
6,QCIECGKRFNRHCNLIRHQKIHTV [S8R],3.77
7,QCIECGKAFNRHCNLIRHQKIHTV [S8A],2.84
8,QCIECGKQFNRHCNLIRHQKIHTV [S8Q],3.02
9,QCIECGKEFNRHCNLIRHQKIHTV [S8E],3.52
10,QCIECGKSFNRHCNLIRHQMIHTV [K20M],3.13
11,QCIECGKSFNRHCNLIRHQSIHTV [K20S],3.3
12,QCIECGKSFNRHCNLIRHQIIHTV [K20I],2.2
13,QCIECGKSFNRHCNLIRHQEIHTV [K20E],3.29
14,QCIECGKSFNRECNLIRHQKIHTV [H12E],3.81
15,QCIECGKSFNRYCNLIRHQKIHTV [H12Y],3.27
16,QCIECGKSFNRCCNLIRHQKIHTV [H12C],2.92
17,QCIECGKSFNRGCNLIRHQKIHTV [H12G],3.02
18,QCIECGKSFNRSCNLIRHQKIHTV [H12S],3.22
19,QCIECGKSFNRMCNLIRHQKIHTV [H12M],3.65
20,QCIECGKSFNRICNLIRHQKIHTV [H12I],3.43
21,QCIECGKSFNRHCNLIRHQKYHTV [I21Y],3.6
22,QCIECGKSFNRHCNLIRHQKWHTV [I21W],3.55
23,QCIECGKSFNRHCNLIRHQKRHTV [I21R],3.81
24,QCIECGKSFNRHCNLIRHQKMHTV [I21M],3.72

row,Variant,protein stability index
1,QCIECGKSFNRHCNLIRHQKAHTV [I21A],4
2,QCIECGKSFNRHCNLIRHQKQHTV [I21Q],4.49
3,QCIECGKSFNRHCNLIRHQKVHTV [I21V],3.74
4,QCIECGKSFNRHCNLIRHQKFHTV [I21F],3.15
5,QCIECGKSFNRHCNLIRHQKEHTV [I21E],4.1
6,QCIECCKSFNRHCNLIRHQKIHTV [G6C],1.99
7,QCIECLKSFNRHCNLIRHQKIHTV [G6L],1.97
8,QCIECHKSFNRHCNLIRHQKIHTV [G6H],2.15
9,QCIECKKSFNRHCNLIRHQKIHTV [G6K],3.54
10,QCIECFKSFNRHCNLIRHQKIHTV [G6F],1.59
11,QEIECGKSFNRHCNLIRHQKIHTV [C2E],2.77
12,QTIECGKSFNRHCNLIRHQKIHTV [C2T],1.74
13,QIIECGKSFNRHCNLIRHQKIHTV [C2I],2.06
14,QDIECGKSFNRHCNLIRHQKIHTV [C2D],2.41
15,QRIECGKSFNRHCNLIRHQKIHTV [C2R],1.72
16,QCIECGKSFNRHCNLIFHQKIHTV [R17F],2.22
17,QCIECGKSFNRHCNLINHQKIHTV [R17N],3.24
18,QCIECGKSFNRHCNLIKHQKIHTV [R17K],3.74
19,QCIECGKSFNRHCNLIEHQKIHTV [R17E],4.18
20,QCIECGKSFNRHCNLIWHQKIHTV [R17W],2.66
21,QCIECGKSFNRHCNLIDHQKIHTV [R17D],3.78
22,QCIECGKSFNRHCNLIYHQKIHTV [R17Y],2.52
